The text below walks through data of the RNAGym collection of RNA variant scans (doi:10.1073/pnas.2313332121).

To fix the notation:
B1: TPR t1 (parent)
chain: GACCAAUCUGCCCUCAGAGCUCGAGAACAUCUUCGGAUGCAGAGGAGGCAGGCUUCGGUGGCGCGAUAGCGCCAACGUCCUCAACCUCCAAUGCAUCCCACCACAUGAUGAUGCCUGAAGAGCCUUGGUUUUUUG

Variants of B1 are the subject of this data set. Description: polymerase ribozyme fitness, log enrichment relative to wild type (log ratio); higher = more active; in vitro selection for triplet polymerase activity. The method in brief: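 Fitness is a logarithmic measure of how a genotype enriched relative to the wild type, with replicate averages weighted by inverse variance. The logarithm uses base 2, and enrichment came from Illumina sequencing of input and output libraries. Those libraries were PCR-built, transcribed mutants of each subunit of a heterodimeric triplet polymerase ribozyme, passed through one triplicate in vitro selection round that included frozen incubation at −7 °C, gel excision of extended constructs and streptavidin-bead capture. Genotypes were kept only if they had ≥10 input reads and ≥1 read per output.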
Turning to GACCAUUCUGCCCUCAGAGCUCGAGAACAUCUUCGGAUGCAGAGGAGGCAGGCUUCGGUGGCGCGAUAGCGCCAACGUCCUCAACCUCCAAUGCAUCCCACCACAUGAUGAUCCCUGAAGAGCCUUGGUUUUUUG [A6U G113C], the “polymerase ribozyme fitness (log ratio)” value is -2.6.

As for GACCAAUCUGCCCUCAGAGCUCGAGAACAUCUUCGGGUGCAGAGGAGGGAGGCUUCGGUGGCGCGAUAGCGCCAACGUCCUCAACCUCCAAUGCAUCCCACCACAUGAUGUUGCCUGAAGAGCCUGGGUUUUUUG [A37G C49G A111U U126G], the “polymerase ribozyme fitness (log ratio)” value was -6.22.

As to GACCAAUCUGCCUUCAGAGCUCGAGAACAUCUUCGGAUGCAGAGGAGGCAGGCUUCGGUGGCGCGAUAGCGCCAACGUCCUCAACCUCCAAUGCAUCCCACCACAUGAUGAUGCAUGAAGAGCCUUGGUUUUUUG [C13U C115A], the “polymerase ribozyme fitness (log ratio)” value was -0.378.

Regarding GACCAAUCUGCCCUCAGAGCUCGAGAACAUCUUCGGAUGCAGAGGAGGCAGGCUUCGGUGGCGCGAUAGCGCCAACGUCUUCAACCUCCUAUGCAUCCCACCACAUGAUGAUGCCUGAAGAGCCUUGGUUUUUUG [C80U A90U], the “polymerase ribozyme fitness (log ratio)” value is -0.991.

Turning to GACCAAUCUGCCCUCAGAGCUCGAGAACAUCUUCGGAUGCAGAGGAGGCAGGCUUCUGUGGCGCGAUAGCGCCAACGUCCUCACCCUCCAAUGCAUCCCAGCACAUGAUGAUGCCUGAAGAACCUUGGUUUUUUG [G57U A84C C101G G122A], the “polymerase ribozyme fitness (log ratio)” value was -3.55.

With GACCCAUCGGCCCUGAGAGCUCGAGAACAUCUUCGGAUGCAGUGGAGGCAGGCUUCGGUGGCGCGAUAGCGCCAACGUCCUCAACCUCCAAUGCUUCCCACCACAUGAUUAUGCCUGAAGAGCCUUGGUUUUUUG [A5C U9G C15G A43U A95U G110U], the “polymerase ribozyme fitness (log ratio)” value was -4.99.

For GACCAAUCUGCCCUCAGAGCUCGAGAACAUCUUCGGAUGCGGAGGAGGCAGGCUUCGGUGGCUCGAUAGCGCCAACGUCCUCAACCUCCAAUGCAUCCCACCACAUGAUGAUGCCUCAAGAGCCUUGGUUUUUUG [A41G G63U G117C], the “polymerase ribozyme fitness (log ratio)” value is -6.01.

With GACCAAUCGGCCCUCAGAGCUCGAGAACAUCUUCGGUUGUAGAGAAGGCAGGCUUCGGUGGCGCGAUAGCGUCAACGUCCUCAACCUCCAAUGCAUCCCACCAUAUGAUGAUGCCUGAAGAGCCUUGGUUUUUUG [U9G A37U C40U G45A C72U C104U], the “polymerase ribozyme fitness (log ratio)” value is -0.789.

For GACCAAUCUGCCCUCAGAGCUCGAGAACAUCAUCGGAUGUAGAGGAGGCAGGCUUCGGUGGCGCGAUAGCGCCAACGUCCUCAACCUCCAAUGCAUCCCAACACAUGAUGAUGCCUGAAGAGCCUUGGUUUUUUG [U32A C40U C101A], the “polymerase ribozyme fitness (log ratio)” value is -4.24.

As to GACCAAUCUGCCCUCAGAGCUCGAGAACAUCUUCGGAUGCAGAGGAGGCAGGCUUCGGGAGCGCGAUAGCGCCAACGUCCUCAAACUCCAAUGCAUCCCACCACAUGAUGAUGCCUGAAGAGCCUUGGUUUUUUG [U59G G60A C85A], the “polymerase ribozyme fitness (log ratio)” value is -2.54.

On to GACCAAUCUGCCCUCAGAGCUCGAGAACAUCUUCGGAUGCAGAGGAGGCGGGCUUCGGUGGCGCGAUAGCGCCAACGUCCUAAACCUCCAAUGCAUCCCACCACAUGAUGAUGCCUGAAUAGCCUUGGUUUUUUG [A50G C82A G120U], for which the “polymerase ribozyme fitness (log ratio)” value is -0.452.

Regarding GACCAAUCUGCCCUCAGAGCUCGAGAACAUCUUCGGAUGCAGAGGAGGCAGGCUUCGGUGGCGCGAUAGCGCAGACGUCCUCAACCUCCAAUGCAUCCCACCACAUGAUGAUGCCUGAAGAGCCUUGGUUUUUUG [C73A A74G], the “polymerase ribozyme fitness (log ratio)” value is -0.555.

In the case of GACCAAUCUGCCUUCAGAGCUCGAGAACAUCUUCGGAUGCAGAGAAGGCAGGCUUCGGUGGCGCGAUAGCGCCAACGUCCUCAACCUCCAAUGCAUCCCACCACAUGAUGAUGCCUGAAGAGCCUUGGUUUUUUG [C13U G45A], the “polymerase ribozyme fitness (log ratio)” value was -0.438.

For GACCUAUCUGCCCUCAGAGCUCGAGAACAUCUUCGGAUGCAGAGGAAGCAGGCUUCGGUGGCGCGAUAGCGCCAACGUCCUCAACCUCCAAUGCAUCCCACCACAUGAUGAUGCCUGAAGAGCUUAGGUUUUUUG [A5U G47A C124U U126A], the “polymerase ribozyme fitness (log ratio)” value came to 0.649.

Regarding GACCAAUCUGCCCUCAGAGCUAGAGAACAUCUUCGGAUGCAGAGGAGGCAGGCUUCGGUGGCGCGAUAGCGCCAACGUCCUCAACGUCCAAUGCAUCCCACCACAUGAUGAUGCCUGAAGAGCCUUGGUUUUUUG [C22A C86G], the “polymerase ribozyme fitness (log ratio)” value is -4.67.

For the variant GACCAAUCUGCCCUAAGAGCUCGAGAACAUCUUCGGAUGCAGAGGAGGCAGGCUUCGGUGGCGCGAUAGCGCCGACGUCCUCAACCUCCAAUGCAUCCCACCACAUGAUGAUACCUGAAGAGCCUUGGUUUUUUG [C15A A74G G113A], the “polymerase ribozyme fitness (log ratio)” value is -4.02.

GACCAAUCAGCCCUCAGAGCUCGAGAACAUCUUCGGAUGCAAAGGAGGCAGGCUUCGGUGGCGCGAUAGCGCCAACGUCCUCAACUUCCAAUGCAUCCCACCAGAUGAUUAUGCCUGAAGAGCCUUGGUUUUUUG [U9A G42A C86U C104G G110U]: the “polymerase ribozyme fitness (log ratio)” value is -7.22.

For GACCAAUCUGCCCUCAGAGCUCGAGAACAUCUUCGGAUGCAGAGGAGGCAGGCUUCGGUGGCGCGAUAGCGCCAACGUCCUCAACCCCCAAUGCAUCCCACCACAUGAUGAUGCCUAAAGAGCCUUGGUUUUUUG [U87C G117A], the “polymerase ribozyme fitness (log ratio)” value is -1.27.

For GACCAAUCUGCCCUCAGAGCUCGAGAAUAUCUUCGGAUGCCGAGGAGGCAGGGUUCGGUGGCGCGAUAGCGCCAACGUCCUCAACCUCCAAUGCAUCCCACCACAUGAUGAUGCCUGAAGAGCCUUGGUUUUUUG [C28U A41C C53G], the “polymerase ribozyme fitness (log ratio)” value is -3.32.

For the variant GACCAAUCUGCCCUCAGAGCUCGAGAACAUCUUCGGAUGCAGAGGGGGCAGGCUUCGGUGGCCCGAUAGCGCCAACGUCCUCAACCUCCAAUGCAUCCCACCACAUGAUUAUGCCAGAAGAGCCUUGGUCUUUUG [A46G G63C G110U U116A U130C], the “polymerase ribozyme fitness (log ratio)” value is -4.2.

Turning to GACAAAUCUGCCCUCAGAGCUCGAGAACAUCUUCGGAUGCAGAGGAGGCAGGCUUCGGUGGCGCGAUAGCGCCAACGUCCUCAACCUUCAAUGCAUCCCACCACAUGAUGAUGCCUGAAUAGCCUUGGUUUUUUG [C4A C88U G120U], the “polymerase ribozyme fitness (log ratio)” value is -2.67.
